The supplement of paper PMC11502859
Values joined by “and” are separate entries in the source; they are usually repeats but may differ in a detail not shown here. Identical values can stand only once.

Tested on: HEK293T
Experiment: median enrichment of reporter reads in eGFP-reduced (low/intermediate) vs eGFP-high sorted cells (eGFP-extension fusion abundance) (ratio); higher = stronger loss of eGFP-fusion protein abundance (more destabilising extension)
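Note: lentiviral eGFP-IRES-mCherry reporter pool sorted by FACS 96 h post-transduction, gated on mCherry-high cells, Illumina read counts normalized per million, median across four biological replicates.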

Substance | median enrichment
RQGPPLFWTP [CDHR2] | 1.05
RSWPPLIYSTSLAPHLH [TNFRSF6B] | 8.26
YKPQAPLADGRQGEKRRSSWTSETTVELRREAT [IGFL3] | 1.72
FANCD2 | 5.79 and 4.35
YVNV [CLEC2B] | 0.896
YVEGYKC [FIBIN] | 1.05
LAFRLALAPGTRSPRAPGPLPAPAAPSPSPGCVSLPMTLSWGPPARPGTFLPNPQTHDSLPHRLPQRPPTHFILSGHPSDLDP [SCRT2] | 3.18
LTYLGRLGK [APBB3] | 9.37
LQGPLDL [OR56A3] | 0.31
LADI [MED30] | 0.335
LPPLSPECNKHQIPCVK [POLR2I] | 2.23
SKERHTSEQRSYMCTK [DEFB114] | 0.227
WWHELLASLDGQSKKKLVYFVQICHKLKAVTGEKD [PIWIL4] | 22.9
PARVSGPRSIENTTTMARWKGLLVPASSCPPWCRWPGQPTGLGTGQAGPGRGLSLGGNKSRPTRRCCSGSRCRCRDKSAAVSG [MLST8] | 9
KICQDKGSEDWTCSDIGVLLPSS [MAPK1] | 2.3
GGFFC [GBP7] | 0.518
YLICTNMTQMFSKITGKPLTSICVSQLTEKKITCSSFIISHWNII [SENP7] | 3.44
SRR [TMEM52] | 0.803
SSCCHQLALWPRARCLPFMFPHLQSELVVPDDLRSHDLLTCPMILYFVGRSIKQLLLLLCANHSCNFCSAYLPLFEKHAKGSF [ADAMTSL1] | 4.11
WYHMFSWYVN [ABHD10] | 5.5
LRVAFFLL [GTF2A1] | 6.78
AAAAA [Ala05] | 4.35
QQQQQQ [Gln06] | 0.198
RAMPSLCAVKLSMHYILLAPLQVNAKSQLG [CDC14A] | 7.49

Substance | median enrichment
YKLVLCSG [ZDBF2] | 6.14
SYCSMDIK [KDM6A] | 1.22
IIIIIII [Ile07] | 11
CLGPGRATGSSQAAARMLISKRCWSLPS [ZBTB39] | 30.1
QFLQDTVPLPFFDQLSLVASSLHKM [FCF1] | 14.2
LDRKEYERAIHHQTAHTGEK [ZNF573] | 0.396
WQRRS [GIMAP1] | 0.693
YLEQMETPWGAGSGSPAPSQTLQCQKQQQNETQPPPTTATTRRMIQQVFLKN [GRIA1] | 2.38
GGPMGMSMAQPSYTPPQMTPHPTQLRHGPPMHSYLPSHPHHPAMMMHGGPPTHPGMTMSAQSPTMLNSVDPNVGGQVMDIHAQ [MEIS2] | 2.36
SCSNGKMALFKPGPPIGQTQQQTRGQGSPVALSIEDRFLGSRRGWRKLKAGE [BTN3A2] | 5.24
CGILRWLACWAWGLLTDSMEQGWAVCAHAQHALRGGGGGRGFLMSVQELKVSGVLPRICPTPHDKTELCNKQYQFILAVGFCF [WDR6] | 9.47
GRRWCFRTLSHSLPSSALCHSQPFQQPRQPLLRPFPQPDTHSH [AMOTL2] | 12.3
WCLHHLCSCSLKGSPYSKPPKLGDPSSP [MPIG6B] | 6.53
QTLGNSISCIFDQIVTSFCI [RAB18] | 5.83
LSRLW [CREG1] | 16.6
KRL [CYP17A1] | 0.493
GAPPPGWTGAWLPSSFLPWLPEETPLTQPAWALTTNTLGHGQPAQDRLPALGHCAPISVLGLGSS [TTYH1] | 15.2
CCQDSCALRCK [MT1X] | 0.374
YAATAKKNRVRKLLGWVDLGIFYLVKALYSHRRKIWDISIIYILI [RFPL3] | 45.1
KECSKCGGKS [ZNF671] | 0.995
SRKFLRCCHLLEMRFVLCLNGLFFKKTKNQMKEHSWGFLFVCVCMCKLMSNCICRSVIVLYCVNYFHCGYFSR [U2SURP] | 5.89
PTVRPQRGQDKPCPDAFDRQLCVLVDRCRNKEEMESAPEKLQIQARREVLRKDLQQLHIHINQHNTGWRPNSGVHKRRRDVVG [H6PD] | 5.25
WRQRGGKETWLSLIICIQITVL [ATXN1] | 8.6
SSAYLGLPKCWDYRREPNAQPRGVVFRDISESEGETQD [APOC1] | 1.19
